Assay results published in the supplement of paper PMC9170038.

Columns and labels:
MS2 coat protein [1] = assay: apparent KD of MS2 coat protein, switch ON state; designed switch direction (-1 OFF switch, 1 ON switch): 1; higher = weaker reporter binding; conditions: FMN input: 0 or 200 uM; Eterna round: R93 (includes R88 designs)
Summary of the method: (§1)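 Titration buffer: 100 mM Tris-HCl pH 7.5, 80 mM KCl, 4 mM MgCl2, without or with constant ligand. Designed RNA switches transcribed on-chip from Illumina sequencing clusters received SNAP-549-labelled MS2 coat protein in twofold steps from 0.7 or 1.5 nM to 3 µM. Apparent KD is the median per design of fits to normalised cluster binding curves.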

MS2 coat protein [2] = assay: apparent KD of MS2 coat protein, switch OFF state (with FMN for OFF switches, without FMN for ON switches); designed switch direction (-1 OFF switch, 1 ON switch): 1; higher = weaker reporter binding; conditions: FMN input: 0 or 200 uM; Eterna round: R93 (includes R88 designs)
Summary of the method: as §1

Sequence | apparent KD of MS2 coat protein (MS2 coat protein [1]) | apparent KD of MS2 coat protein (MS2 coat protein [2])
CGGAAGGAGAGAGAGGAUAUCCAAAGGAAAACAUGAGGAUCACCCAUGUAGAAGGUAGGAAAUUGGGAGAAGGCUCAACAGAGAG [salish99-ss2-130] | 0.0191 µM | 0.0334 µM
CGGAGACAUGAGGAUCACCCAUGUGAGAAGAGGCGAGGAUAUCGAAAGAAAGAAGAGAAACGAGAAGGCGCGAGAC [salish99-SS1-077] | 0.0177 µM | 0.0267 µM
CGGAGACAUGAGGAUCACCCAUGUGAGAAGAGGCGAGGAUAUCGAAAGAAAGAAGAGAAACGAGAAGGCGCGAGGG [salish99-SS1-075] | 0.0183 µM | 0.0277 µM
CGUCUACAUGAGGAUCACCCAUGUCAAGAGUGGUCAGGAUAUGGUAUUAGAUGAGUAUGGCCAGAAGGGACAUAAG [JR_SS001_Sub715] | 0.167 µM | 0.386 µM
CGUGAACAUGAGGAUCACCCAUGUAGCGGGAGACAAGGAUAUGGGAGGCGAAAUCGCGGAUCAGAAGGUGUAAGCG [Zace] | 0.0164 µM | 0.0165 µM
CUAAUUGCAUAUUAGGAUAUACACUGGGUGACAUGAGGAUCACCCAUGUAAAAGCACACUCGGUAGUAGAAGGAGUGUGCAAGUC [Iserso] | 0.036 µM | 0.0191 µM
CUACAACAUGAGGAUCACCCAUGUCGUAGAAAUCAAGGAUAUGGGUCGGUAACAUGCGUACCAGAAGGUGAGGAAA [Rebicequ] | 0.0293 µM | 0.0304 µM
GAAAAACAUGAGGAUCACCCAUGUAAGAUAAACACAGGAUAUGCGAAAAUAAACAAAGAAGCAGAAGGGUGAAGAA [Mat - Same State 1 - Tesla mod - 72] | 0.023 µM | 0.0803 µM
GAAAAACAUGAGGAUCACCCAUGUAGAAAAAUGGGAGGAUAUACAAAGACGAAAGUCAAAGUAGAAGGCCUGAAAG [same state 77% mat/eli mod] | 0.0248 µM | 0.0744 µM
GAAAAACAUGAGGAUCACCCAUGUAGAAAUAUGGGAGGAUAUACAAAGACGAAAGUCAAAGUAGAAGGCCUAAAAG [Mat - Mod of Eli] | 0.0239 µM | 0.0693 µM
GAAAAACAUGAGGAUCACCCAUGUAGAAAUAUGGGAGGAUAUACAAAGACGAAAGUCAAAGUAGAAGGCCUAAAAG [Mat - Same State 1 - Rerun of Eli mod - D1] | 0.0239 µM | 0.0693 µM
GAAAAACAUGAGGAUCACCCAUGUAGAAAUAUGGGAGGAUAUACAAAGACGAAAGUCAAAGUAGAAGGCCUAAGAG [Garnet 22] | 0.0318 µM | 0.0826 µM
GAAAAACAUGAGGAUCACCCAUGUAGAAAUAUGGGAGGAUAUACGAAGUCGAAAGUCAAAGUAGAAGGCCUAAAAG [Garnet 28] | 0.0313 µM | 0.108 µM
GAAAAACAUGAGGAUCACCCAUGUGAAAAUAUGGAAGGAUAUACAAAGACGAAAGUCAAAGUAGAAGGUCUAAAAG [Mat - Same State 1 - Eli mod - D14] | 0.015 µM | 0.0225 µM
GAAAAACAUGAGGAUCACCCAUGUGAAAAUAUGGGAGGAUAUACAAGGACGAAAGUCAAGGUAGAAGGCCUAAAAG [Mat - Same State 1 - Eli mod - 27] | 0.0394 µM | 0.0788 µM
GAAAAACAUGAGGAUCACCCAUGUGAGAAUAUGGGAGGAUAUACGAGGACGAGAGUCAAGGUAGAAGGCCUAAAAG [Garnet 75] | 0.0405 µM | 0.549 µM
GAAAAACAUGAGGAUCACCCAUGUGAGAAUAUGGGAGGAUAUUCAAAGACGAGAGUCAAAGAAGAAGGCCUAAAAG [Mat - Same State 1 - Eli mod - 38] | 0.0293 µM | 0.161 µM
GAAAAACAUGAGGAUCACCCAUGUGGAAAUAUGGAAGGAUAUACAAAGACGGAAGUCAAAGUAGAAGGUCUAAAAG [Mat - Same State 1 - Eli mod - D19] | 0.0236 µM | 0.0294 µM
GAAAAACAUGAGGAUCACCCAUGUGUAAACACGGGAGGAUAUACGAAGACGUAAGUCAAAGUAGAAGGCCUAAAAG [Garnet 40] | 0.0189 µM | 0.0603 µM
GAAAUAAAAACACAGGAUAUCCAAAAGAAAACAUGAGGAUCACCCAUGUAAAGAAAAUAAAAAUGGGAGAAGGGUGAAAAUAAAA [Mat - Same State 2 - JL mod - D26] | 0.0158 µM | 0.0413 µM
GAAGACAUAGUUCAGGAUAUAGGAAUAGUCACAUGAGGAUCACCCAUGUGCAUUUAUAUGCGCACUUAGAAGGGAGGUAGUUAUC [SameState2 Malc#23] | 0.036 µM | 0.025 µM
GAAGACGUAGGAUAGGAUAUGUGAAUAAUUACAUGAGGAUCACCCAUGUCCAUUUAUAUGGGAACAUAGAAGGGUUUUCGUUAUC [SameState2 Malc#9] | 0.341 µM | 0.281 µM

Sequence | apparent KD of MS2 coat protein (MS2 coat protein [1]) | apparent KD of MS2 coat protein (MS2 coat protein [2])
GACUAACAUGAGGAUCACCCAUGUAUUCAAACAUGAGGAUAUAUAACACAUCAUCGACGGAUAGAAGGCAUAGAUA [JR_SS001_Sub1207] | 0.0811 µM | 0.0717 µM
GAGGACCUAGGAUAGGAUAUGUGAAUAAUUACAUGAGGAUCACCCAUGUCCAUUUAUAUGGGAACAUAGAAGGGUUUUGGUUAUC [SameState2 Malc#39] | 0.232 µM | 0.18 µM
GAUCCAACUAGUCAGGAUAUCAGGCGUAAGACAUGAGGAUCACCCAUGUCCUAAGAACAAGUAACUGAGAAGGGACAGGGCGACC [JR_SS002_Sub412] | 0.0705 µM | 0.0743 µM
GCAAAACAUGAGGAUCACCCAUGUGAAAAGAAUGUAGGAUAUGGGCUCAUAAAUAGCAGCCCAGAAGGGCGAAGAA [Onmace] | 0.0296 µM | 0.0262 µM
GCCUAACAUGAGGAUCACCCAUGUAGUGGGUUGUUAGGAUAUGGGCCGUGUAACACUGCACCAGAAGGAAUAGAAG [Atinanqu] | 0.382 µM | 0.532 µM
GCGGUGUAGGUACAGGAUAUGUUGCUCGUAACAUGAGGAUCACCCAUGUACCUAUGAGAUUAAAUGCAGAAGGGUGCACACCACG [Zaalaes] | 0.0215 µM | 0.00241 µM
GGAAGACAUGAGGAUCACCCAUGUGGGAAUAUGGGAGGAUAUACAAAGACGAGAGUCAGAGUAGAAGGCCUAGGAC [salish99-ss1-102] | 0.0328 µM | 0.105 µM
GGAAGACAUGAGGAUCACCCAUGUGGGAAUAUGGGAGGAUAUACAAAGACGAGAGUCAGAGUAGAAGGCCUAGGCC [salish99-ss1-103(!)] | 0.0543 µM | 0.126 µM
GGAAGACAUGAGGAUCACCCAUGUGGGAUUAUGGGAGGAUAUACAAAGACGAGAGUCAGAGUAGAAGGCCUAGGAC [salish99-ss1-123(!)] | 0.0311 µM | 0.0614 µM
GGAAGGAAGAGAGAGGAUAUCCAAAGGAAAACAUGAGGAUCACCCAUGUAAAAGGUAGGAAAUUGGGAGAAGGCUCAAAAGAGAG [salish99-ss2-036] | 0.0186 µM | 0.014 µM
GGAGCCGACACUGAGGAUAUUCAUAUUAAAACAUGAGGAUCACCCAUGUAGGCCAGAAGGCCUUGGGAGAAGGCAGGCCGGCUCG [Inxebi] | 0.0193 µM | 0.256 µM
GGAGCCGGUACUGAGGAUAUUCAUAUUAAAACAUGAGGAUCACCCAUGUAGGCCAGAAGGCCUUGGGAGAAGGCAGACCAGCUCG [Atgexeedri] | 0.0191 µM | 0.273 µM
GGCUGCGAUGUGAAGGAUAUCCGCGACUGGACAUGAGGAUCACCCAUGUAUGCUUGGAACAUGCCGGAGAAGGUCACGAAUGAUU [JR_SS002_Sub1216] | 0.0187 µM | 0.0302 µM
GGGAGACAUGAGGAUCACCCAUGUGAGAAGAGGCGAGGAUAUCGAAAAAAAAAAAAAAAACGAGAAGGCGCGAGAG [salish99-SS1-005] | 0.0637 µM | 0.0286 µM
GGGAGGAAGAGAGAGGAUAUCCAAAGGAAAACAUGAGGAUCACCCAUGUAAAAGGUAGGAAAUUGGGAGAAGGCUCAAGAGACGG [salish99-ss2-053] | 0.0267 µM | 0.0342 µM
GGGCAAGAGAGAGAGGAUAUCCAAAGGAAAACAUGAGGAUCACCCAUGUAGAAGGUAGGAAAUUGGGAGAAGGCUCAAGAGAGAG [salish99-ss2-137] | 0.00851 µM | 0.0126 µM
GGGUAAGAGAGAGAGGAUAUCCAAAGGAAAACAUGAGGAUCACCCAUGUAGAAGGUAGGAAAUUGGGAGAAGGCUCAAGAGAGAG [salish99-ss2-136] | 0.0298 µM | 0.0297 µM
GGUACAUCUAGUUAGGAUAUCAGAUGUAAGACAUGAGGAUCACCCAUGUCCUAAGAAUAGGUAACUGAGAAGGAACAGGGAGUCC [JR_SS002_Sub417] | 0.0365 µM | 0.0298 µM
GGUACGGCUAGUCAGGAUAUCAGGCGUAAGACAUGAGGAUCACCCAUGUCCUAAGAACAGGUAACUGAGAAGGGACAGGGCGUCC [JR_SS002_Sub414] | 0.0288 µM | 0.0631 µM
GGUACUACAGAUCAGGAUAUGUUUGGGUAAACAUGAGGAUCACCCAUGUGUGCCCGAUACACAGCACAGAAGGGAUAACGUGGGA [Ditia] | 0.0162 µM | 0.0214 µM
GUAGACAUAGUUCAGGAUAUAGGAAUAGUCACAUGAGGAUCACCCAUGUGCAUUUAUAUGCGCACUUAGAAGGGAGGUAGUUAAC [Mat - Same state - Malcolm Mod - D121] | 0.0263 µM | 0.025 µM
